US20150203577A1 (Chugai, published 2015)

T1: mouse FcγRII extracellular domain, C-terminally His-tagged (mouse, UniProt P08101 30-210)
T1 construct: the whole entry is named; also called mFcγRII; mFcgRII
T1 sequence: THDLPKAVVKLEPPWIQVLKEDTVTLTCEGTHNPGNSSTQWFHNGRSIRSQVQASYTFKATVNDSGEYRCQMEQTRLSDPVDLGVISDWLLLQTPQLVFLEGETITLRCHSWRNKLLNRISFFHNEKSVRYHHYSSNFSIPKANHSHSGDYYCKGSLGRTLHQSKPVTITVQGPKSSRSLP

T2: mouse FcγRIII extracellular domain, C-terminally His-tagged (mouse, UniProt P08508 31-215)
T2 construct: the whole entry is named; also called mFcγRIII; mFcgRIII
T2 chain: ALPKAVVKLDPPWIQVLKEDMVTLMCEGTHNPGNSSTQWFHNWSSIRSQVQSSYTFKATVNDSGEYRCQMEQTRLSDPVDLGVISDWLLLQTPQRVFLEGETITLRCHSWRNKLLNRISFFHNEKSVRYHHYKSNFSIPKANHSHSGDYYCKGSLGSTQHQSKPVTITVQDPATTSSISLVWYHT


What was measured:
[1] = target: T1, mouse FcγRII extracellular domain, …; experiment: SPR Biacore T200, KD ratio
Source text: (§1) The antibody H chain variable region used was the variable region H237 (SEQ ID NO: 1) of the H chain VH3-IgG1 of the anti-IL-6 receptor antibody Fv4-IgG1 described in WO2009/125825. The antibody L chain commonly used was the L chain MRAL-k0 (SEQ ID NO: 2) of the anti-IL-6 receptor antibody tocilizumab. […] The resulting variant groups were designated as MB397 variants and MB390 variants, respectively. These variants were expressed and purified by the method of Reference Example 1 and evaluated for their binding to mFcγRII and mFcγRIII by the method of Reference Example 2 using Biacore T200.
(§2) Each altered antibody was analyzed for its interaction with each Fcγ receptor prepared above using Biacore T100 (GE Healthcare Japan Corp.), Biacore T200 (GE Healthcare Japan Corp.), Biacore A100, or Biacore 4000. The running buffer used was HBS-EP+ (GE Healthcare Japan Corp.). The assay temperature was set to 25° C. The sensor chips used were chips prepared by immobilizing Protein L (ACTIGEN or BioVision) onto Series S Sensor Chip CM5 (GE Healthcare Japan Corp.) or Series S Sensor Chip CM4 (GE Healthcare Japan Corp.) by the amine coupling method.
(§3) In order to calculate the KD value of each altered antibody for FcγR, kinetic analysis was conducted according to the following method: first, the antibody of interest was captured onto any of these chips and allowed to interact with mFcγR diluted with a running buffer. For the obtained sensorgram, the assay results were globally fit into the 1:1 Langmuir binding model using Biacore Evaluation Software to calculate an association rate constant ka (L/mol/s) and a dissociation rate constant kd (1/s). From these values, the dissociation constant KD (mol/L) was calculated.

[2] = target: T2, mouse FcγRIII extracellular domain, …; experiment: SPR Biacore T200, KD ratio
Source text: as §1, §2, §3

Row | relative mFcγRII-binding activity (MB397 = 1) [1] | relative mFcγRII-binding activity (mIgG1 = 1) [1] | relative mFcγRIII-binding activity (MB397 = 1) [2] | relative mFcγRIII-binding activity (mIgG1 = 1) [2] | relative mFcγRII-binding activity (MB390 = 1) [1] | relative mFcγRIII-binding activity (MB390 = 1) [2] | Binder
1 | 0.35 fold | 192 fold | 0.77 fold | 15 fold | – | – | H237-MB465/MRAL-k0 (antibody, mouse IgG1, kappa, copies: 2 + 2) heavy: QVQLQESGPGLVKPSETLSLTCAVSGHSISHDHAWSWVRQPPGEGLEWIGFISYSGITNYNPSLQGRVTISRDNSKNTLYLQMNSLRAEDTAVYYCARSLARTTAMDYWGEGTLVTVSSAKTTPPSVYPLAPGSAAQTNSMVTLGCLVKGYFPEPVTVTWNSGSLSSGVHTFPAVLQSDLYTLSSSVTVPSSTWPSETVTCNVAHPASSTKVDKKIVPRDCGCKPCICETYEVEDVFIFPPKPKDVLTITLTPKVTCVVVDISKDDPEVQFSWFVDDVEVHTAQTQPREELFNSTFRSVSELPIMHQDWLNGKEFKCRVNSAAFPAPIEKTISKTKGRPKAPQVYTIPPPKEQMAKDKVSLTCMITDFFPEDITVEWQWNGQPAENYKNTQPIMDTDGSYFVYSKLNVQKSNWEAGNTFTCSVLHEGLHNHHTEKSLSHSPGK light: not shown
2 | 0.81 fold | 449 fold | 1.66 fold | 32 fold | – | – | H237-MB466/MRAL-k0 (antibody, mouse IgG1, kappa, copies: 2 + 2) heavy: QVQLQESGPGLVKPSETLSLTCAVSGHSISHDHAWSWVRQPPGEGLEWIGFISYSGITNYNPSLQGRVTISRDNSKNTLYLQMNSLRAEDTAVYYCARSLARTTAMDYWGEGTLVTVSSAKTTPPSVYPLAPGSAAQTNSMVTLGCLVKGYFPEPVTVTWNSGSLSSGVHTFPAVLQSDLYTLSSSVTVPSSTWPSETVTCNVAHPASSTKVDKKIVPRDCGCKPCICETYEVEDVFIFPPKPKDVLTITLTPKVTCVVVDISKDDPEVQFSWFVDDVEVHTAQTQPREEQFNSTFRSVSELPIMHQDWLNGKEFKCRVNSDAFPAPIEKTISKTKGRPKAPQVYTIPPPKEQMAKDKVSLTCMITDFFPEDITVEWQWNGQPAENYKNTQPIMDTDGSYFVYSKLNVQKSNWEAGNTFTCSVLHEGLHNHHTEKSLSHSPGK light: not shown
3 | 0.49 fold | 271 fold | 0.99 fold | 19.2 fold | – | – | H237-MB467/MRAL-k0 (antibody, mouse IgG1, kappa, copies: 2 + 2) heavy: QVQLQESGPGLVKPSETLSLTCAVSGHSISHDHAWSWVRQPPGEGLEWIGFISYSGITNYNPSLQGRVTISRDNSKNTLYLQMNSLRAEDTAVYYCARSLARTTAMDYWGEGTLVTVSSAKTTPPSVYPLAPGSAAQTNSMVTLGCLVKGYFPEPVTVTWNSGSLSSGVHTFPAVLQSDLYTLSSSVTVPSSTWPSETVTCNVAHPASSTKVDKKIVPRDCGCKPCICETYEVEDVFIFPPKPKDVLTITLTPKVTCVVVDISKDDPEVQFSWFVDDVEVHTAQTQPREEQFNSTFRSVSELPIMHQDWLNGKEFKCRVNSAGFPAPIEKTISKTKGRPKAPQVYTIPPPKEQMAKDKVSLTCMITDFFPEDITVEWQWNGQPAENYKNTQPIMDTDGSYFVYSKLNVQKSNWEAGNTFTCSVLHEGLHNHHTEKSLSHSPGK light: not shown
4 | – | 196 fold | – | 3 fold | 0.38 fold | 0.25 fold | H237-MB477/MRAL-k0 (antibody, mouse IgG1, kappa, copies: 2 + 2) heavy: QVQLQESGPGLVKPSETLSLTCAVSGHSISHDHAWSWVRQPPGEGLEWIGFISYSGITNYNPSLQGRVTISRDNSKNTLYLQMNSLRAEDTAVYYCARSLARTTAMDYWGEGTLVTVSSAKTTPPSVYPLAPGSAAQTNSMVTLGCLVKGYFPEPVTVTWNSGSLSSGVHTFPAVLQSDLYTLSSSVTVPSSTWPSETVTCNVAHPASSTKVDKKIVPRDCGCKPCICEPNEVEDVFIFPPKPKDVLTITLTPKVTCVVVDIAKDDPEVQFSWFVDDVEVHTAQTQPREEQFNSTFRSVSELPIMHQDWLNGKEFKCRVNSAAFPAPIEKTISKTKGRPKAPQVYTIPPPKEQMAKDKVSLTCMITDFFPEDITVEWQWNGQPAENYKNTQPIMDTDGSYFVYSKLNVQKSNWEAGNTFTCSVLHEGLHNHHTEKSLSHSPGK light: not shown

More lines, now with the values behind:

Row | Binder | relative mFcγRII-binding activity (MB397 = 1) [1] | relative mFcγRII-binding activity (mIgG1 = 1) [1] | relative mFcγRIII-binding activity (MB397 = 1) [2] | relative mFcγRIII-binding activity (mIgG1 = 1) [2] | relative mFcγRII-binding activity (MB390 = 1) [1] | relative mFcγRIII-binding activity (MB390 = 1) [2]
5 | H237-MB460/MRAL-k0 (antibody, mouse IgG1, kappa, copies: 2 + 2) heavy: QVQLQESGPGLVKPSETLSLTCAVSGHSISHDHAWSWVRQPPGEGLEWIGFISYSGITNYNPSLQGRVTISRDNSKNTLYLQMNSLRAEDTAVYYCARSLARTTAMDYWGEGTLVTVSSAKTTPPSVYPLAPGSAAQTNSMVTLGCLVKGYFPEPVTVTWNSGSLSSGVHTFPAVLQSDLYTLSSSVTVPSSTWPSETVTCNVAHPASSTKVDKKIVPRDCGCKPCICETYEVEDVFIFPPKPKDVLTITLTPKVTCVVVDISKDDPEVQFSWFVDDVEVHTAQTQPREEQFNSTFRSVSELPIMHQDWLNGKEFKCRVNSAAFPAPIEKYISKTKGRPKAPQVYTIPPPKEQMAKDKVSLTCMITDFFPEDITVEWQWNGQPAENYKNTQPIMDTDGSYFVYSKLNVQKSNWEAGNTFTCSVLHEGLHNHHTEKSLSHSPGK light: not shown | 0.6 fold | 332 fold | 1.1 fold | 21.2 fold | – | –
6 | H237-MB463/MRAL-k0 (antibody, mouse IgG1, kappa, copies: 2 + 2) heavy: QVQLQESGPGLVKPSETLSLTCAVSGHSISHDHAWSWVRQPPGEGLEWIGFISYSGITNYNPSLQGRVTISRDNSKNTLYLQMNSLRAEDTAVYYCARSLARTTAMDYWGEGTLVTVSSAKTTPPSVYPLAPGSAAQTNSMVTLGCLVKGYFPEPVTVTWNSGSLSSGVHTFPAVLQSDLYTLSSSVTVPSSTWPSETVTCNVAHPASSTKVDKKIVPRDCGCKPCICETYEVEDVFIFPPKPKDVLTITLTPKVTCVVVDISKDDPEVQFSWFVDDVEVHTAQTQPREEQFNSTFRSVSELPIMHQDWLNGKEFKCRVNSAAFPAPIEKTIWKTKGRPKAPQVYTIPPPKEQMAKDKVSLTCMITDFFPEDITVEWQWNGQPAENYKNTQPIMDTDGSYFVYSKLNVQKSNWEAGNTFTCSVLHEGLHNHHTEKSLSHSPGK light: not shown | 0.55 fold | 307 fold | 1.12 fold | 21.6 fold | – | –
7 | H237-MB464/MRAL-k0 (antibody, mouse IgG1, kappa, copies: 2 + 2) heavy: QVQLQESGPGLVKPSETLSLTCAVSGHSISHDHAWSWVRQPPGEGLEWIGFISYSGITNYNPSLQGRVTISRDNSKNTLYLQMNSLRAEDTAVYYCARSLARTTAMDYWGEGTLVTVSSAKTTPPSVYPLAPGSAAQTNSMVTLGCLVKGYFPEPVTVTWNSGSLSSGVHTFPAVLQSDLYTLSSSVTVPSSTWPSETVTCNVAHPASSTKVDKKIVPRDCGCKPCICETYEVEDVFIFPPKPKDVLTITLTPKVTCVVVDIAKDDPEVQFSWFVDDVEVHTAQTQPREEQFNSTFRSVSELPIMHQDWLNGKEFKCRVNSAAFPAPIEKTISKTKGRPKAPQVYTIPPPKEQMAKDKVSLTCMITDFFPEDITVEWQWNGQPAENYKNTQPIMDTDGSYFVYSKLNVQKSNWEAGNTFTCSVLHEGLHNHHTEKSLSHSPGK light: not shown | 0.16 fold | 88.5 fold | 0.39 fold | 7.6 fold | – | –
8 | H237-MB462/MRAL-k0 (antibody, mouse IgG1, kappa, copies: 2 + 2) heavy: QVQLQESGPGLVKPSETLSLTCAVSGHSISHDHAWSWVRQPPGEGLEWIGFISYSGITNYNPSLQGRVTISRDNSKNTLYLQMNSLRAEDTAVYYCARSLARTTAMDYWGEGTLVTVSSAKTTPPSVYPLAPGSAAQTNSMVTLGCLVKGYFPEPVTVTWNSGSLSSGVHTFPAVLQSDLYTLSSSVTVPSSTWPSETVTCNVAHPASSTKVDKKIVPRDCGCKPCICETYEVEDVFIFPPKPKDVLTITLTPKVTCVVVDISKDDPEVQFSWFVDDVEVHTAQTQPREEQFNSTFRSVSELPIMHQDWLNGKEFKCRVNSAAFPAPIEKTIKKTKGRPKAPQVYTIPPPKEQMAKDKVSLTCMITDFFPEDITVEWQWNGQPAENYKNTQPIMDTDGSYFVYSKLNVQKSNWEAGNTFTCSVLHEGLHNHHTEKSLSHSPGK light: not shown | 0.39 fold | 214 fold | 0.78 fold | 15.1 fold | – | –
9 | H237-MB461/MRAL-k0 (antibody, mouse IgG1, kappa, copies: 2 + 2) heavy: QVQLQESGPGLVKPSETLSLTCAVSGHSISHDHAWSWVRQPPGEGLEWIGFISYSGITNYNPSLQGRVTISRDNSKNTLYLQMNSLRAEDTAVYYCARSLARTTAMDYWGEGTLVTVSSAKTTPPSVYPLAPGSAAQTNSMVTLGCLVKGYFPEPVTVTWNSGSLSSGVHTFPAVLQSDLYTLSSSVTVPSSTWPSETVTCNVAHPASSTKVDKKIVPRDCGCKPCICETYEVEDVFIFPPKPKDVLTITLTPKVTCVVVDISKDDPEVQFSWFVDDVEVHTAQTQPREEQFNSTFRSVSELPIMHQDWLNGKEFKCRVNSAAFPAPIEKTIIKTKGRPKAPQVYTIPPPKEQMAKDKVSLTCMITDFFPEDITVEWQWNGQPAENYKNTQPIMDTDGSYFVYSKLNVQKSNWEAGNTFTCSVLHEGLHNHHTEKSLSHSPGK light: not shown | 0.45 fold | 247 fold | 0.97 fold | 18.8 fold | – | –
